Assay results taken from PMC4527729, “The Inner Membrane Protein PilG Interacts with DNA and the Secretin PilQ in Transformation”.

Tests used:
Conditions in all cases: protein: recombinant; tags: C-terminal 6xHis; label: 32P end label; blunt
PilG257-410 = PilG257-410 (Neisseria meningitidis MC58, UniProt Q7DDR1 257-410); experiment: South-western; Optimized EMSA: 50 mM HEPES pH 7.5, 100 mM NaCl, 5 mM MgCl2, 1 mM DTT, 10% glycerol, 0.05% DDM, on ice 15 min, 0.45 nM DNA; first EMSA: 25 mM NaH2PO4 pH 8.0, 150 mM NaCl, 1 mM DTT, 10% glycerol, 0.05% DDM, on ice
PilG30-80 = PilG30-80 (Neisseria meningitidis MC58, UniProt Q7DDR1 30-80); experiment: as above
PilG166-410 = PilG166-410 (Neisseria meningitidis MC58, UniProt Q7DDR1 166-410); experiment: as above
PilG1-60 = PilG1-60 (Neisseria meningitidis MC58, UniProt Q7DDR1 1-60); experiment: as above
PilG1-80 = PilG1-80 (Neisseria meningitidis MC58, UniProt Q7DDR1 1-80); experiment: EMSA; 5 mM MgCl2; Optimized EMSA: 50 mM HEPES pH 7.5, 100 mM NaCl, 5 mM MgCl2, 1 mM DTT, 10% glycerol, 0.05% DDM, on ice 15 min, 0.45 nM DNA; first EMSA: 25 mM NaH2PO4 pH 8.0, 150 mM NaCl, 1 mM DTT, 10% glycerol, 0.05% DDM, on ice
PilG Q55A = PilG Q55A (Neisseria meningitidis MC58, UniProt Q7DDR1 1-410, Q55A); experiment: South-western; same as FL; Optimized EMSA: 50 mM HEPES pH 7.5, 100 mM NaCl, 5 mM MgCl2, 1 mM DTT, 10% glycerol, 0.05% DDM, on ice 15 min, 0.45 nM DNA; first EMSA: 25 mM NaH2PO4 pH 8.0, 150 mM NaCl, 1 mM DTT, 10% glycerol, 0.05% DDM, on ice
PilG SS62-63AA = PilG SS62-63AA (Neisseria meningitidis MC58, UniProt Q7DDR1 1-410, S62A;S63A); experiment: as above
PilG FL = PilG FL (Neisseria meningitidis MC58, UniProt Q7DDR1 1-410); experiment: EMSA; optimized EMSA; R2 0.96?; Optimized EMSA: 50 mM HEPES pH 7.5, 100 mM NaCl, 5 mM MgCl2, 1 mM DTT, 10% glycerol, 0.05% DDM, on ice 15 min, 0.45 nM DNA; first EMSA: 25 mM NaH2PO4 pH 8.0, 150 mM NaCl, 1 mM DTT, 10% glycerol, 0.05% DDM, on ice
PilG EEE39-41AAA = PilG EEE39-41AAA (Neisseria meningitidis MC58, UniProt Q7DDR1 1-410, E39A;E40A;E41A); experiment: South-western; increased vs FL per text; Optimized EMSA: 50 mM HEPES pH 7.5, 100 mM NaCl, 5 mM MgCl2, 1 mM DTT, 10% glycerol, 0.05% DDM, on ice 15 min, 0.45 nM DNA; first EMSA: 25 mM NaH2PO4 pH 8.0, 150 mM NaCl, 1 mM DTT, 10% glycerol, 0.05% DDM, on ice
PilG RKK43-45AAA = PilG RKK43-45AAA (Neisseria meningitidis MC58, UniProt Q7DDR1 1-410, R43A;K44A;K45A); experiment: EMSA; extrapolated; about 50% bound at 5 uM per text; Optimized EMSA: 50 mM HEPES pH 7.5, 100 mM NaCl, 5 mM MgCl2, 1 mM DTT, 10% glycerol, 0.05% DDM, on ice 15 min, 0.45 nM DNA; first EMSA: 25 mM NaH2PO4 pH 8.0, 150 mM NaCl, 1 mM DTT, 10% glycerol, 0.05% DDM, on ice
PilG1-178 = PilG1-178 (Neisseria meningitidis MC58, UniProt Q7DDR1 1-178); experiment: EMSA; 5 mM MgCl2; DUS+ duplex assigned by Table 2 EMSA footnote; Optimized EMSA: 50 mM HEPES pH 7.5, 100 mM NaCl, 5 mM MgCl2, 1 mM DTT, 10% glycerol, 0.05% DDM, on ice 15 min, 0.45 nM DNA; first EMSA: 25 mM NaH2PO4 pH 8.0, 150 mM NaCl, 1 mM DTT, 10% glycerol, 0.05% DDM, on ice

B1: HH7HH8 (dsDNA)
DNA 1: AACAACAACAAATGCCGTCTGAACCAACATGCCGTCTGAAAACAACAACAAC
DNA 2: GTTGTTGTTGTTTTCAGACGGCATGTTGGTTCAGACGGCATTTGTTGTTGTT
PilG257-410
  binding result: no binding
PilG30-80
  binding result: no binding
PilG166-410
  binding result: no binding
PilG1-60
  binding result: no binding
PilG1-80
  apparent K (half saturation): 283 nM
PilG Q55A
  binding result: binds
PilG SS62-63AA
  binding result: binds
PilG FL
  apparent K (half saturation): 1070 nM
PilG EEE39-41AAA
  binding result: binds
PilG RKK43-45AAA
  apparent K (half saturation): ~685 µM
PilG1-178
  apparent K (half saturation): 269 nM
